According to patent publication US6423500 (SCHERING, dated 2002):

B1: human IL-10 (ligand, UniProt P22301 19-178, looked up)
chain: SPGQGTQSENSCTHFPGNLPNMLRDLRDAFSRVKTFFQMKDQLDNLLLKESLLEDFKGYLGCQALSEMIQFYLEEVMPQAENQDPDIKAHVNSLGENLKTLRLRLRRCHRFLPCENKSKAVEQVKNAFNKLQEKGIYKAMSEFDIFINYIEAYMTMKIRN
modifications: radioiodinated (125I, lactoperoxidase method) where used as labeled ligand; positions not given
notes: mature; Labeled and unlabeled hIL-10 are treated as one molecule; also called hIL-10; human interleukin-10
B2: mouse IL-10 (ligand, UniProt P18893 19-178, looked up)
chain: SRGQYSREDNNCTHFPVGQSHMLLELRTAFSQVKTFFQTKDQLDNILLTDSLMQDFKGYLGCQALSEMIQFYLVEVMPQAEKHGPEIKEHLNSLGEKLKTLRMRLRRCHRFLPCENKSKAVEQVKSDFNKLQDQGVYKAMNEFDIFINCIEAYMMIKMKS
notes: mature; also called mIL-10; murine IL-10

Assays:
human IL-10 receptor [1] = target: T1, human IL-10 receptor (human, UniProt Q13651 22-578); experiment: Scatchard analysis of 125I-hIL-10 binding to Ba8.1 cells, repeat experiments
T1 construct: Expressed on transfected COS7 cells and Ba/F3 (Ba8.1) cells; The native IL-10 receptor on human cell lines (JY, TF-1, BJAB, Ramos, BH5) is written as this same molecule; also called hIL-10R; human IL-10 receptor component
T1 sequence: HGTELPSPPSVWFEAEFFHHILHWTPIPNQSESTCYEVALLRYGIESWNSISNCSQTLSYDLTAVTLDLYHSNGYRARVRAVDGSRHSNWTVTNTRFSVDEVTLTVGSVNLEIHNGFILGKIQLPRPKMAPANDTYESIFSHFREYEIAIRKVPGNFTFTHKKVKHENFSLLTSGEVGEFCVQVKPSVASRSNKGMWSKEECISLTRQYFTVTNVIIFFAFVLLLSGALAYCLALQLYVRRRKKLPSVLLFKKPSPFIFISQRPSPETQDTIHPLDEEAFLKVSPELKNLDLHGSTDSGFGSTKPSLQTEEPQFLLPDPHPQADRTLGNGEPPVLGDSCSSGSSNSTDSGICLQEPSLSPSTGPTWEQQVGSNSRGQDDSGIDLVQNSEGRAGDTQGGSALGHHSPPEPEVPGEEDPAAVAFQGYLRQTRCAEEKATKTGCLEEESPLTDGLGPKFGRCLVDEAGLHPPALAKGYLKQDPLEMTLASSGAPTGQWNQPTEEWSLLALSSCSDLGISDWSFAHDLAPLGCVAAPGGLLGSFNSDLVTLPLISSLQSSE
Excerpt: (§1) Values for Kd and receptor number were obtained by Scatchard analysis (23, 33, 34).

mouse IL-10 receptor [2] = target: T2, mouse IL-10 receptor (mouse, UniProt Q61727 17-575); experiment: saturation binding of iodinated hIL-10 to COS7 cells transfected with mouse clone m3.14, Scatchard plot
T2 construct: Expressed on transfected COS7 cells; the native receptor on mouse cell lines (MC/9, J774, WEHI 265.1) is written as this same molecule; also called mIL-10R; mouse IL-10 receptor component
T2 sequence: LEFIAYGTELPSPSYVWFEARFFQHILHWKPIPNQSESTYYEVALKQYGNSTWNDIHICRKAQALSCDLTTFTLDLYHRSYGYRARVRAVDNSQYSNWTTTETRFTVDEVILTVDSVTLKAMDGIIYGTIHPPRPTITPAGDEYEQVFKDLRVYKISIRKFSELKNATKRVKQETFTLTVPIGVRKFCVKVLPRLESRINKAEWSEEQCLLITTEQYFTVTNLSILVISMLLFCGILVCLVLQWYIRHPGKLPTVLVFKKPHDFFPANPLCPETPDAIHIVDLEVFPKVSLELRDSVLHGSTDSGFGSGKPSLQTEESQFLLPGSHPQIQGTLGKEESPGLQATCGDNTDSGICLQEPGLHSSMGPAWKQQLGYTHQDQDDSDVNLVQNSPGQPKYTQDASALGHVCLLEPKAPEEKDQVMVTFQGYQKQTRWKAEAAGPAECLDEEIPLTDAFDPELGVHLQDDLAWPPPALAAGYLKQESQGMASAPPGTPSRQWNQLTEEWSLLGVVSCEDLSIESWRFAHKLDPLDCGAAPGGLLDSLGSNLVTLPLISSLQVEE
Description: (§2) Binding assays were performed. […] For FIGS. 16 and 17, the highest concentration was 1 nM. Background was determined by performing binding at 500-fold molar excess. Points represent averages of duplicates.

mouse IL-10 receptor [3] = target: T2, mouse IL-10 receptor; experiment: saturation binding of iodinated hIL-10 to MC/9 cells, Scatchard analysis (EBDA)
Description: (§3) Scatchard analysis was performed on the data points obtained using the EBDA Program (Elsevier-Biosoft, Cambridge, U.K.). Antibody inhibition was performed under the above binding conditions but with the addition of a 100-fold molar excess of each of the indicated monoclonal antibodies. Cytokine specificity was determined under similar conditions but with the addition of 500-fold molar excess of the cytokines indicated.

human IL-10 receptor [4] = target: T1, human IL-10 receptor; experiment: saturation binding of iodinated hIL-10 to JY cells, Scatchard analysis
Description: as §3

human IL-10 receptor [5] = target: T1, human IL-10 receptor; experiment: Scatchard analysis of 125I-hIL-10 binding to Ba8.1 cells (Ba/F3 expressing hIL-10R), experiment shown
Excerpt: as §1

human IL-10 receptor [6] = target: T1, human IL-10 receptor; experiment: saturation binding of iodinated hIL-10 to COS7 cells transfected with human clone SW8.1, Scatchard plot
Description: as §2

[7] = target: IL-10 receptors on JY and MC/9 cells; experiment: saturation binding of iodinated hIL-10 to JY and MC/9 cells, several independent experiments
human IL-10 receptor [8] = target: T1, human IL-10 receptor; experiment: saturation binding of iodinated hIL-10 to JY cells, Scatchard analysis (EBDA)
Description: as §3

mouse IL-10 receptor [9] = target: T2, mouse IL-10 receptor; experiment: FACS competition against FLAG-mIL-10 on MC/9 and J774 cells

| Binder | Kd (human IL-10 receptor [1]) [nM] | Kd (mouse IL-10 receptor [2]) [nM] | Kd (mouse IL-10 receptor [3]) [nM] | Kd (human IL-10 receptor [4]) [nM] | Kd (human IL-10 receptor [5]) [nM] | Kd (human IL-10 receptor [6]) [nM] | Kd [7] [nM] | Kd (human IL-10 receptor [8]) [nM] | binding result (mouse IL-10 receptor [9]) |
| --- | --- | --- | --- | --- | --- | --- | --- | --- | --- |
| B1 | 0.2 to 0.25 | 0.083 | 0.049 | ~0.15 | ~0.25 | 0.12 | 0.05 to 0.17 | 0.14 |  |
| B2 |  |  |  |  |  |  |  |  | binds |
